Source: IntAct's records for PubMed 29892012

B1: Myotubularin-related protein 9 (Homo sapiens), Q96QG7 (parent)
chain: MEFAELIKTPRVDNVVLHRPFYPAVEGTLCLTGHHLILSSRQDNTEELWLLHSNIDAIDKRFVGSLGTIIIKCKDFRIIQLDIPGMEECLNIASSIEALSTLDSITLMYPFFYRPMFEVIEDGWHSFLPEQEFELYSSATSEWRLSYVNKEFAVCPSYPPIVTVPKSIDDEALRKVATFRHGGRFPVLSYYHKKNGMVIMRSGQPLTGTNGRRCKEDEKLINATLRAGKRGYIIDTRSLNVAQQTRAKGGGFEQEAHYPQWRRIHKSIERYHILQESLIKLVEACNDQTHNMDRWLSKLEASNWLTHIKEILTTACLAAQCIDREGASILIHGTEGTDSTLQVTSLAQIILEPRSRTIRGFEALIEREWLQAGHPFQQRCAQSAYCNTKQKWEAPVFLLFLDCVWQILRQFPCSFEFNENFLIMLFEHAYASQFGTFLGNNESERCKLKLQQKTMSLWSWVNQPSELSKFTNPLFEANNLVIWPSVAPQSLPLWEGIFLRWNRSSKYLDEAYEEMVNIIEYNKELQAKVNILRRQLAELETEDGMQESP
B2: Atos homolog protein B (Homo sapiens), Q7L5A3 (parent)
chain: MRHVQAEPSPSSEPEAGPSQPPVRQGALQGGLLMGYSPAGGATSPGVYQVSIFSPPAGTSEPHRALKRQAPSTEGPRELKRGPGLGAREGLPPEEPSTVGLLGPEGPGLGLGVASQHFSHRGLCVVEQRSSVTSSWTSGAWSPPCPPSNASCNTLHTRDWASPDPGGQGSLGESPGPAPPGQLHTLDTDLHSLAQIGGKSPVAGVGNGGSLWPRESPGTANGHSPEHTPPGPGPPGPCPTKRRLLPAGEAPDVSSEEEGPAPRRRRGSLGHPTAANSSDAKATPFWSHLLPGPKEPVLDPTDCGPMGRRLKGARRLKLSPLRSLRKGPGLLSPPSASPVPTPAVSRTLLGNFEESLLRGRFAPSGHIEGFTAEIGASGSYCPQHVTLPVTVTFFDVSEQNAPAPFLGIVDLNPLGRKGYSVPKVGTVQVTLFNPNQTVVKMFLVTFDFSDMPAAHMTFLRHRLFLVPVGEEGNANPTHRLLCYLLHLRFRSSRSGRLSLHGDIRLLFSRRSLELDTGLPYELQAVTEAPHNPRYSPLP

Variants of: B1
Details: with emil1_human EMILIN1, Q9Y6C2
emil1_human EMILIN1, Q9Y6C2, sequence (Q9Y6C2 whole entry): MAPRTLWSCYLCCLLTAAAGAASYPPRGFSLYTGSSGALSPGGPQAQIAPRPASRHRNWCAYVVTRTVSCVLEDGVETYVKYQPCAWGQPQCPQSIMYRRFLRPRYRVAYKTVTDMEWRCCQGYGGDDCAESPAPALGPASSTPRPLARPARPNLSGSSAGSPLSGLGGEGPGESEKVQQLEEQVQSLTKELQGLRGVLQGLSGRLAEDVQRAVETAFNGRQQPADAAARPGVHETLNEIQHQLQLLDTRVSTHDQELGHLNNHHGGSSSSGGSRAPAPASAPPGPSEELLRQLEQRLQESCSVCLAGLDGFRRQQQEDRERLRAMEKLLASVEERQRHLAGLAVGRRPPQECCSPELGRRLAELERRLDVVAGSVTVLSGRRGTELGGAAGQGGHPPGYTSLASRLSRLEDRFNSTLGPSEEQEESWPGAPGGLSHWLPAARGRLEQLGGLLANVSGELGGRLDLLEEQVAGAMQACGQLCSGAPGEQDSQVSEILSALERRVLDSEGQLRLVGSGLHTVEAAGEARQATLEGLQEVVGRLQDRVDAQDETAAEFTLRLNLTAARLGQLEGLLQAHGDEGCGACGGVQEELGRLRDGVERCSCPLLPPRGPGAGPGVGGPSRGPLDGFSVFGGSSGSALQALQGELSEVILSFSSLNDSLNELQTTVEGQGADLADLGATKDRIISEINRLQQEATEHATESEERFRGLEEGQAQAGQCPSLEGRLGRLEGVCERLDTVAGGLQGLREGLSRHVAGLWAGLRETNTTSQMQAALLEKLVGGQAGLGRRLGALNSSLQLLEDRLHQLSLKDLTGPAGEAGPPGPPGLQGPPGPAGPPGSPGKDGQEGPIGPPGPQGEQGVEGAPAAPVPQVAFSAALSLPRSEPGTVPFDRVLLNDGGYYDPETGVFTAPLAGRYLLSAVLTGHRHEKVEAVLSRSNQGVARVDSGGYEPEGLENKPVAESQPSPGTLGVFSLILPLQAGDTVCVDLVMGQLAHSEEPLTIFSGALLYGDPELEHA
For MEFAELIKTPRVDNVVLHRPFYPAVEGTLCLTGHHLILSSRQDNTEELWLLHSNIDAIDKRFVGSLGTIIIKCKDFRIIQLDIPGMEECLNIASSIEALSTLDSITLMYPFFYRPMFEVIEDGWHSFLPEQEFELYSSATSEWRLSYVNKEFAVCPSYPPIVTVPKSIDDEALRKVATFRHGGRFPVLSYYHKKNGMVIMRSGQPLTGTNGRRCKEDEKLINATLRAGKRGYIIDTRSLNVAQQTRAKGGGFEQEAHYPQWRRIHKSIERYHILQESLIKLVEACNDQTHNMDRWLSKLEASNWLTHIKEILTTACLAAQCIDREGASILIHGTEGTDSTLQVTSLAQIILEPRSRTISGFEALIEREWLQAGHPFQQRCAQSAYCNTKQKWEAPVFLLFLDCVWQILRQFPCSFEFNENFLIMLFEHAYASQFGTFLGNNESERCKLKLQQKTMSLWSWVNQPSELSKFTNPLFEANNLVIWPSVAPQSLPLWEGIFLRWNRSSKYLDEAYEEMVNIIEYNKELQAKVNILRRQLAELETEDGMQESP [R359S], the “effect of a mutation on the interaction” value was “with no effect”.

Variants of: B2
Details: with mdfi_human MDFI
MRHVQAEPSPSSEPEAGPSQPPVRQGALQGGLLMGYSPAGGATSPGVYQVSIFSPPAGTSEPHRALKRQAPSTEGPRELKRGPGLGAREGLPPEEPSTVGLLGPEGPGLGLGVASQHFSHRGLCVVEQRSSVTSSWTSGAWSPPCPPSNASCNTLHTRDWASPDPGGQGSLGESPGPAPPGQLHTLDTDLHSLAQIGGKSPVAGVGNGGSLWPRESPGTANGHSPEHTPPGPGPPGPCPTKRRLLPAGEAPDVSSEEEGPAPRRRRGSLGHPTAANSSDAKATPFWSHLLPGPKEPVLDPTDCGPMGRRLKGARRLKLSPLRSLRKGPGLLSPPSASPVPTPAVSRTLLGNFEESLLRGRFAPSGHIEGFTAEIGASGSYYPQHVTLPVTVTFFDVSEQNAPAPFLGIVDLNPLGRKGYSVPKVGTVQVTLFNPNQTVVKMFLVTFDFSDMPAAHMTFLRHRLFLVPVGEEGNANPTHRLLCYLLHLRFRSSRSGRLSLHGDIRLLFSRRSLELDTGLPYELQAVTEAPHNPRYSPLP [C381Y] was tested, and the “effect of a mutation on the interaction” value was “with no effect”.

Variants of: B2
Details: with ikzf1_human IKZF1, Q13422
ikzf1_human IKZF1, Q13422, sequence (Q13422 whole entry): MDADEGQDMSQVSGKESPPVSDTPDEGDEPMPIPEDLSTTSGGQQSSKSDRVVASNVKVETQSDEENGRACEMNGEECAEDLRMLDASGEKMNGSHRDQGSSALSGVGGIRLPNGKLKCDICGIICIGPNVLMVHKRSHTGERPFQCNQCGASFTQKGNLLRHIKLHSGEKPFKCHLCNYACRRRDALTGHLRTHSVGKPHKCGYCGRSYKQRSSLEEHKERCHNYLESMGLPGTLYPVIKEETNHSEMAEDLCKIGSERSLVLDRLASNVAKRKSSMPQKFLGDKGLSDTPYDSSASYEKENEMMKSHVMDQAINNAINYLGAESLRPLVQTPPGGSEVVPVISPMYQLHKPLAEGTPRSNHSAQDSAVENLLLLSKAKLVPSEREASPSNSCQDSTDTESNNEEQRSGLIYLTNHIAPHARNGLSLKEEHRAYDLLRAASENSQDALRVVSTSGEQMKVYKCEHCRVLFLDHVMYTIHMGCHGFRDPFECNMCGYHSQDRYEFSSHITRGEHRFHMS
For MRHVQAEPSPSSEPEAGPSQPPVRQGALQGGLLMGYSPAGGATSPGVYQVSIFSPPAGTSEPHRALKRQAPSTEGPRELKRGPGLGAREGLPPEEPSTVGLLGPEGPGLGLGVASQHFSHRGLCVVEQRSSVTSSWTSGAWSPPCPPSNASCNTLHTRDWASPDPGGQGSLGESPGPAPPGQLHTLDTDLHSLAQIGGKSPVAGVGNGGSLWPRESPGTANGHSPEHTPPGPGPPGPCPTKRRLLPAGEAPDVSSEEEGPAPRRRRGSLGHPTAANSSDAKATPFWSHLLPGPKEPVLDPTDCGPMGRRLKGARRLKLSPLRSLRKGPGLLSPPSASPVPTPAVSRTLLGNFEESLLRGRFAPSGHIEGFTAEIGASGSYYPQHVTLPVTVTFFDVSEQNAPAPFLGIVDLNPLGRKGYSVPKVGTVQVTLFNPNQTVVKMFLVTFDFSDMPAAHMTFLRHRLFLVPVGEEGNANPTHRLLCYLLHLRFRSSRSGRLSLHGDIRLLFSRRSLELDTGLPYELQAVTEAPHNPRYSPLP [C381Y], the “effect of a mutation on the interaction” value was “disrupting interaction strength”.

Variants of: B2
Details: with dnja3_human DNAJA3, Q96EY1
dnja3_human DNAJA3, Q96EY1, sequence (Q96EY1 whole entry): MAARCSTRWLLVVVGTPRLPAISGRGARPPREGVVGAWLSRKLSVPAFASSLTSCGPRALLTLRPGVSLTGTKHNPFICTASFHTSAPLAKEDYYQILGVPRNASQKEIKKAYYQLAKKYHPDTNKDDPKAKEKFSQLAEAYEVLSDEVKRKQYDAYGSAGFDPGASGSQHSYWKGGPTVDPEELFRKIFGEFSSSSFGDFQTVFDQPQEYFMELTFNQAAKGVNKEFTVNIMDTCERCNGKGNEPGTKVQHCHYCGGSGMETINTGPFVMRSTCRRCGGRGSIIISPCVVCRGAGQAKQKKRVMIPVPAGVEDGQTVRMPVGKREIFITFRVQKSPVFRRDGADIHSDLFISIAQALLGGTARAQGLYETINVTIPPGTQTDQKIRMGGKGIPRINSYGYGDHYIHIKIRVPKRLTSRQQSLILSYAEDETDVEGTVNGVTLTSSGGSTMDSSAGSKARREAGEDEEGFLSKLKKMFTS
MRHVQAEPSPSSEPEAGPSQPPVRQGALQGGLLMGYSPAGGATSPGVYQVSIFSPPAGTSEPHRALKRQAPSTEGPRELKRGPGLGAREGLPPEEPSTVGLLGPEGPGLGLGVASQHFSHRGLCVVEQRSSVTSSWTSGAWSPPCPPSNASCNTLHTRDWASPDPGGQGSLGESPGPAPPGQLHTLDTDLHSLAQIGGKSPVAGVGNGGSLWPRESPGTANGHSPEHTPPGPGPPGPCPTKRRLLPAGEAPDVSSEEEGPAPRRRRGSLGHPTAANSSDAKATPFWSHLLPGPKEPVLDPTDCGPMGRRLKGARRLKLSPLRSLRKGPGLLSPPSASPVPTPAVSRTLLGNFEESLLRGRFAPSGHIEGFTAEIGASGSYYPQHVTLPVTVTFFDVSEQNAPAPFLGIVDLNPLGRKGYSVPKVGTVQVTLFNPNQTVVKMFLVTFDFSDMPAAHMTFLRHRLFLVPVGEEGNANPTHRLLCYLLHLRFRSSRSGRLSLHGDIRLLFSRRSLELDTGLPYELQAVTEAPHNPRYSPLP [C381Y] was tested, and the “effect of a mutation on the interaction” value was “disrupting interaction strength”.
